# B1: SARS CoV main proteinase (enzyme)
# chain: SGFRKMAFPSGKVEGCMVQVTCGTTTLNGLWLDDTVYCPRHVICTAEDMLNPNYEDLLIRKSNHSFLVQAGNVQLRVIGHSMQNCLLRLKVDTSNPKTPKYKFVRIQPGQTFSVLACYNGSPSGVYQCAMRPNHTIKGSFLNGSCGSVGFNIDYDCVSFCYMHHMELPTGVHAGTDLEGKFYGPFVDRQTAQAAGTDTTITLNVLAWLYAAVINGDRWFLNRFTTTLNDFNLVAMKYNYEPLTQDHVDILGPLSAQTGIAVLDMCAALKELLQNGMNGRTILGSTILEDEFTPFDVVRQCSGVTFQ
# Biological target: the molecule itself
# Experiment: small-angle X-ray scattering + cross-linking + other: enzyme kinetics
protein,measurement,value
B1,stoichiometry N,2

# Reference: article PMC7094300 (Febs Letters, 2006)
